# Test results taken from article PMC3069011 (Molecular Biology of the Cell, 2011).
# T1: GST-Nup88 (human, UniProt Q99567 1-741)
# T1 sequence (looked up): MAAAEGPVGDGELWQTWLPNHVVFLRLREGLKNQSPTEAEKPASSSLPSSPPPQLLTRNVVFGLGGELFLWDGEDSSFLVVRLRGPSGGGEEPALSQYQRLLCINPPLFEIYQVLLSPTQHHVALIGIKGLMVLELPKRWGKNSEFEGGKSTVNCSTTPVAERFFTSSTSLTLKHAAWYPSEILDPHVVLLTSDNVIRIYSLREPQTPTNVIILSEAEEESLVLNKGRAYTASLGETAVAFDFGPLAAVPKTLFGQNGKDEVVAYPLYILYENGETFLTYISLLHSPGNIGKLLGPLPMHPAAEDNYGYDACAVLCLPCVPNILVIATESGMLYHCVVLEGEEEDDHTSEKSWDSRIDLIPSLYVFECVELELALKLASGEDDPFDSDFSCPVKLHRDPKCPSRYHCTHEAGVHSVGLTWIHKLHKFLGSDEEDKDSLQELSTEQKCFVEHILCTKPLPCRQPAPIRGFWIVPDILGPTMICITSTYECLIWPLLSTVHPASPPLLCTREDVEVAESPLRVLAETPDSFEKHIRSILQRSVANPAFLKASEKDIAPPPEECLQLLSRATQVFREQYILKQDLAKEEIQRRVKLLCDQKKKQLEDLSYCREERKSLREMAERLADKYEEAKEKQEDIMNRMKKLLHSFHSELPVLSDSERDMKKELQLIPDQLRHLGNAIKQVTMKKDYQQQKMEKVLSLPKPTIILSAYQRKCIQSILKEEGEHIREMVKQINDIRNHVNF
# B1: lamin A tail (residues 243-664), bacterially expressed and purified (domain or fragment, human, UniProt P02545 243-664, looked up)
# chain: DALQELRAQHEDQVEQYKKELEKTYSAKLDNARQSAERNSNLVGAAHEELQQSRIRIDSLSAQLSQLQKQLAAKEAKLRDLEDSLARERDTSRRLLAEKEREMAEMRARMQQQLDEYQELLDIKLALDMEIHAYRKLLEGEEERLRLSPSPTSQRSRGRASSHSSQTQGGGSVTKKRKLESTESRSSFSQHARTSGRVAVEEVDEEGKFVRLRNKSNEDQSMGNWQIKRQNGDDPLLTYRFPPKFTLKAGQVVTIWAAGAGATHSPPTDLVWKAQNTWGCGNSLRTALINSTGEEVAMRKLVRSVTVVEDDEDEDGDDLLHHHHGSHCSSSGDPAEYNLRSRTVLCGTCGQPADKASASGSGAQVGGPISSGSSASSVTVTRSYRSVGGSGGGSFGDNLVTRSYLLGNSSPRTQSPQNCSIM
# Biological target: T1, GST-Nup88
# Assay: far-Western, overlay or dot blot
binder,measurement,value
B1,binding result,binds
